The target in assay [1] is T1, purified EBV gp350/220 (recombinant EBV gp350 ectodomain) (Epstein-Barr virus, UniProt P03200).
T1 construct: purified EBV gp350 ectodomain protein (AA 4-863); purchased Immune Technology Corporation
The assay is described as follows: Indirect ELISA on recombinant EBV gp350 ectodomain. It counts as binding. To be noted: for ELISA binding to purified EBV gp350/220: purified antibodies 10 μg/ml; for ELISA binding strength to gp350, compared with m72A1 / parental antibody: soluble gp350 0.5 μg/ml. The procedure:
Briefly, immunoplates (Costar 3590; Corning Incorporated) were coated with 50 μl of 0.5 μg/ml recombinant EBV gp350 ectodomain (Immune Technology Corporation) diluted in 1× phosphate buffered saline (PBS, pH 7.4) and incubated overnight at 4° C. After washing three times with 1×PBS containing 0.05% (v/v) Tween 20 (washing buffer), plates were blocked with 100 μl washing buffer containing 2% (w/v) bovine serum albumin (BSA) (blocking buffer) then incubated for 1 h at room temperature and washed as above. 100 μl of hybridoma supernatant or 50 μl of 10 μg/ml purified mAbs was added to each well (in triplicate) and incubated for 2 h at room temperature. […] The plates were washed as described above, followed by incubation with 50 μl of goat anti-mouse IgG HRP-conjugated secondary antibody (1:2,000 diluted in 1×PBS) at room temperature for 1 h. The plates were washed again and 100 μl of chromogenic substrate 2,2′-azino-bis (3-ethylbenzothiazoline-6-sulphonic acid) (ABTS, Life Science Technologies) was added. The reaction was stopped using 100 μl of ABTS peroxidase stop solution containing 5% sodium dodecyl sulfate (SDS) in water. The absorbance was read at an optical density of 405 nm using an ELISA reader (Molecular Devices). All experiments were performed in triplicate and confirmed in three independent experiments.
ELISA binding of anti-gp350 and anti-gH/gL to soluble gp350 and gH/gL proteins was performed. Soluble EBV gp350 and gH/gL proteins were used as the target antigen at 0.5 μg/ml. 1× phosphate buffered saline (PBS) was used as negative (not shown) control. Bound antibodies were detected using HRP-conjugated anti-mouse or anti-human IgG (1:2,000).

Assay [2] deals with T2, EBV gp350 stably expressed on CHO cells (Epstein-Barr virus, UniProt P03200).
T2 construct: stably co-transfected with full-length pCAGGS-gp350/220 and pCI-puro vector; expressed in transfected cells; host or cells: CHO cells
T2 sequence (P03200 whole entry): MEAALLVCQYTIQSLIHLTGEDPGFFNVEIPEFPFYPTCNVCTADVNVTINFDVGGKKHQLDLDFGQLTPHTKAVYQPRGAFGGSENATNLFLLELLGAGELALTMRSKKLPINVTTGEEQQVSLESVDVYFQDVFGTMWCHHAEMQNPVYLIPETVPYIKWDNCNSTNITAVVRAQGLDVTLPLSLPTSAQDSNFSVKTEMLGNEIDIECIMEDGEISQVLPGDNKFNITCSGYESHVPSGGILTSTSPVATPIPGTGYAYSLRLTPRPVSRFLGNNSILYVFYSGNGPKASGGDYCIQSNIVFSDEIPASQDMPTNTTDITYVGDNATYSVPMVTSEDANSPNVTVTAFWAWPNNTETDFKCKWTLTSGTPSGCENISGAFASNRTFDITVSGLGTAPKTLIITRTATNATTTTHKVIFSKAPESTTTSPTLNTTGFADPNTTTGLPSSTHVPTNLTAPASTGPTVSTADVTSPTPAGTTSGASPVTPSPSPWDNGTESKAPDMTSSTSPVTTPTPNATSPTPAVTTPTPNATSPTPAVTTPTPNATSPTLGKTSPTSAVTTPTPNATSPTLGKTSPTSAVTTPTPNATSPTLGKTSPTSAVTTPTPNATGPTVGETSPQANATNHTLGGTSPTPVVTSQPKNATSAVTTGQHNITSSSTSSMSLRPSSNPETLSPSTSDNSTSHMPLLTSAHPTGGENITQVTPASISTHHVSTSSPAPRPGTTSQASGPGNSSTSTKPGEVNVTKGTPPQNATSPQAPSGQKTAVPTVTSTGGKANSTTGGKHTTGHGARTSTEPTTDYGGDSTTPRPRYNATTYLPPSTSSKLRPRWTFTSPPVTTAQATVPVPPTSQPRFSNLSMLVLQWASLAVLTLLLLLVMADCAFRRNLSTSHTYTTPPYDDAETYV
The assay can be described thus: Epitope mapping by competitive cell binding assay with biotinylated mAbs. Here is the method:
To evaluate conformation epitope mapping of the selected mAbs, competitive binding assays were conducted using biotinylated mAbs. A one-step antibody biotinylation kit (MACS Miltenyi Biotec) was used to biotinylate the mAbs. Approximately 1×10^5 CHO cells that stably expressed EBV gp350 were incubated for 2 hours with serially diluted ([…]) unlabeled competitor mAbs and non-specific anti-KSHV gH/gL 54A1 mAb. After being washed with PBS, the cells were incubated for 2 hours in the presence of 1 μg/ml biotinylated mAbs. To determine maximum binding, cells in which the biotinylated mAb was added in the absence of unlabeled mAbs were included in the assay. Cells were washed with PBS, followed by incubation for 1 hour with anti-biotin AF488 at a dilution of 1:500. After the final wash in PBS, cells were resuspended in 1% paraformaldehyde and analyzed by flow cytometry as described above. Percentage of inhibition was calculated as: 100−[(% fluorescent cells with competitor mAb/% fluorescent cells without competitor mAb)×100]. The complete prevention of binding of a biotinylated mAb by its unlabeled counterpart was used as a validation of the assay, as previously described (84).
At least seven unique CD21 binding epitopes on EBV gp350 have been predicted (Table 3).

Assay [3] relates to EBV-eGFP infection of Raji cells. The assay can be described thus: EBV neutralization assay in Raji cells. To be noted: for neutralization of EBV in Raji cells (in words): spin-column purified mAbs, 12.5, 25, 50 and 100 μg/ml. The format is cell-based, Epstein-Barr virus. The procedure:
EBV neutralization assay was performed in Raji cells as previously described (47). Briefly, purified individual anti-gp350 mAbs were incubated with purified AGS-EBV-eGFP (titer calculated to infect at least 8% of HEK293 cells seeded in 100 μl of serum-free DMEM) for 2 hours at 37° C. To represent EBV infection of B cells, the pre-incubated anti-gp350 mAbs/AGS-EBV-eGFP were used to infect 5×10^5 Raji cells seeded in a 96-well plate for 2 hours at 37° C. Neutralizing 72A1 and non-neutralizing 2L10 anti-gp350 mAbs served as positive and negative controls, respectively. Infected cells were washed three times with PBS to remove any unbound viruses and antibodies. Washed, infected cells were incubated in 96-well plates at 37° C. for 48 hours post-infection and the number of eGFP+ (infected) cells was determined using flow cytometry. All dilutions were performed in quintuplicate and the assays were repeated three times. Antibody EBV neutralization activity was calculated as: % neutralization=(EBValone−EBVmAb)/(EBValone)×100.
However, this antibody was recently reported to be a mixture of both functional and non-functional antibodies (50). […] The percentage of eGFP+ cells (percent infection) was determined using flow cytometry as described (47). The nAbs 72A1 and E1D1 were used as positive controls, whereas the anti-gp350 non-neutralizing mAb 2L10 and KSHV gH/gL mAb 54A1 were used as negative controls. Because HB4, HB13, HB15, HB16, HB19, HB21, and HB23 were confirmed to be polyclonal based on isotyping and/or sequence data, they were eliminated from further consideration in the neutralization assay. HB18 was not used in neutralization experiments because it was identical to HB8.
The purified eGFP-tagged-EBV was titered in Raji cells to determine percent EBV infection using a range of volumes (50-250 μl) (FIG. 5A). Then initial neutralization of EBV was conducted in Raji cells using purified mAbs at various concentrations (12.5, 25, 50, and 100 μg/ml).
EBV-eGFP+ cells were enumerated using flow cytometry.

A value given as a limit tells only on which side of the number the result lay.

Experimental findings from patent publication US12012446B2, “Epstein-Barr virus antibodies and uses thereof” (priority 2017, dated 2024) are described below.

T1 sequence (P03200 4-863): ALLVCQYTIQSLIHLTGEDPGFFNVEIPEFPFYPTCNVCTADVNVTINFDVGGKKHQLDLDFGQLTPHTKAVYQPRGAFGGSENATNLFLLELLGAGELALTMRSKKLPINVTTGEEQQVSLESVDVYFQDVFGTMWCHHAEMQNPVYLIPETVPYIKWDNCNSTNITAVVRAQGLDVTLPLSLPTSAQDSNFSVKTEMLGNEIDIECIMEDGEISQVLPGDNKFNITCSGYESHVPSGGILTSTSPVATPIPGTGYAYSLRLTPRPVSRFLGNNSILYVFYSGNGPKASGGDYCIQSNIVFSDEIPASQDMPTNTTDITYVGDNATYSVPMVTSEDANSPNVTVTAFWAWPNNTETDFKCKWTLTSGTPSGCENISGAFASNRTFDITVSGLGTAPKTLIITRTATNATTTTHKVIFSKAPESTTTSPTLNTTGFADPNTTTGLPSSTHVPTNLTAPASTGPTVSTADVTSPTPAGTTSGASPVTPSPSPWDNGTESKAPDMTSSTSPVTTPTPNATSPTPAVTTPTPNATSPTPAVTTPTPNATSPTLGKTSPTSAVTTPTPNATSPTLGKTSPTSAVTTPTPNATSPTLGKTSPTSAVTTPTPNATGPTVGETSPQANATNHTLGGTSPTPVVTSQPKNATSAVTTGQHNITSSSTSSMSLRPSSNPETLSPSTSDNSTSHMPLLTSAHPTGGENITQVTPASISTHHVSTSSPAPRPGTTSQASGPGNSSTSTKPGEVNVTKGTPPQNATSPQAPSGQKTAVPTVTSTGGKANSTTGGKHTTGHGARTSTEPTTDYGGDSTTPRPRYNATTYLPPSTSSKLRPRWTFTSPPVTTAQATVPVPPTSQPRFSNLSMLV

B1: HB1: murine anti-EBV gp350 mAb, IgG1 κ; heavy chain SEQ ID NO: 102, light chain SEQ ID NO: 103; neutralizing (antibody, V domains shown)
VH: PGLVAPSQSLSITCTVSGFLLTTYGVHWVRQPPGKGLEWLGVIWAGGSTNYNSALMSRLSINKDISKSQVFLKMNSLQTDDTAMYYCTRDRGYGYLYAMDYWGQGTSVTVSSAKTTPPSVYPLAPGSAAQTNSMVTLG
VL: KFMSTSVGDRVSVTCKASQNVGTNVAWYQQKPGQSPKALIYSTSSRYTGVPDRFAGSGSGTDYTLTISNVQSEDLAEYFCQQYNTYPYTFGGGTRLDIKRADAAPTV
modifications: heavy chain mAb HB1; light chain mAb HB1
notes: murine anti-EBV gp350 mAb, IgG1 κ; neutralizing
As to B1, in assay [1], the “ELISA binding to purified EBV gp350/220” value is on record as “+”. For the same molecule, in assay [2] (biotinylated antibodies), the “competitive binding versus m72A1 and h72A1 (in words)” value was “bound targets that overlapped with those of both m72A1 and h72A1”. For the same molecule, the “antigen binding competition with biotinylated m72A1 (in words)” value in assay [2] (biotinylated m72A1 1 μg/ml, unlabeled mAbs 500-67.5 μg/ml) is reported as “Antigen binding competition was observed”. Also, the “blocking of EBV infection of Raji cells (in words)” value in assay [3] (protein G and size-exclusion chromatography-purified mAbs, 12.5-100 μg/ml) was “blocked EBV infection in a dose-dependent manner”. Also, the “neutralization of EBV in Raji cells (in words)” value (from here on “neutralization of EBV”) in assay [3] is reported as “dose-dependent neutralization”.

B2: HB8: murine anti-EBV gp350 mAb, IgG1 κ; SEQ ID NO: 114 / 115; HB18 has identical VH and VL (antibody, V domains shown)
VH: PELKKPGETVKISCKASGYSFTNYGMNWVKQAPGKGLKWMGWINTYTGEPTYADDFKGRFAFSLETSASTAFLQINNLKNEDTATYLCARYYYGSVYSAWFAYWGQGTLVTVSAAKTTPPSVYPLAPGSAAQTNSMVTLG
VL: LSLPVSLGDQASISCRSSQSIVHSNGNTYLEWYLQKAGQSPKLLIYKVSNRFSGVPDRFGGSGSGTDFTLKISRVEAEDLGVYYCFQGSHVPYTFGGGTKLEIKRADAAPTV
modifications: heavy chain mAb HB8; light chain mAb HB8
notes: murine anti-EBV gp350 mAb, IgG1 κ; HB18 has identical VH and VL
Consider B2, for which the “ELISA binding to purified EBV gp350/220” value in assay [1] is listed as “+”. Moreover, the “neutralization of EBV” value in assay [3] was “failed to neutralize EBV infection”.

B3: HB10: murine anti-EBV gp350 mAb, IgG1 κ; SEQ ID NO: 118 / 119; non-nAb (protein)
chain 1: B2 VL
chain 2: SSLSASLGDRVTISCRASQDIGNYLNWYQQKPDGTVKLLIYYTSRLHSGVPSRFSGSGSGTDYSLTISNLEEEDIATYFCQQGNTLPPTFGGGTKLEIKRADAAPTV
modifications: heavy chain mAb HB10; light chain mAb HB10
notes: murine anti-EBV gp350 mAb, IgG1 κ; non-nAb
Consider B3, for which, in assay [1], the “ELISA binding to purified EBV gp350/220” value is listed as “+”. Besides, the “% inhibition of biotinylated nAbs (biotinylated m72A1)” value in assay [2] (unlabeled mAb 67.5 μg/ml, biotinylated m72A1 1 μg/ml) was 13%; in assay [2] (unlabeled mAb 125 μg/ml, biotinylated m72A1 1 μg/ml), 16%; in assay [2] (unlabeled mAb 250 μg/ml, biotinylated m72A1 1 μg/ml), 14%; in assay [2] (unlabeled mAb 500 μg/ml, biotinylated m72A1 1 μg/ml), 12%. Moreover, in assay [3] (protein G and size-exclusion chromatography-purified mAbs, highest concentration 100 μg/ml), the “blocking of EBV infection of Raji cells (nAb activity)” value is reported as less than 50%. For the same molecule, the “neutralization of EBV” value in assay [3] is “failed to neutralize EBV infection”.

B4: HB6: murine anti-EBV gp350 mAb, IgG1 κ; SEQ ID NO: 110 / 111 (antibody, V domains shown)
VH: PELRKPGETVKISCKASGYTFTDYSMHWVKQTPGKGLKWMGWINTRTGEPRYADDFKGRFAFSLETSASTAYLQINNLKNEDTATYFCAPYGYALDYWGQGTSVTVSSAKTTPPSVYPLAPGSAAQTNSMVTLG
VL: AILSASPGEKVTMTCRATSSVNYMHWYQQKPGSSPKPWIYATSNLASGVPARFSGSGSGTSYSLTISRVEAEDAATYYCQQWSSNPPTFGAGTKLELKRADAAPTV
modifications: heavy chain mAb HB6; light chain mAb HB6
Take B4: the “ELISA binding to purified EBV gp350/220” value in assay [1] is given as “+”. Besides, the “neutralization of EBV” value in assay [3] is recorded as “failed to neutralize EBV infection”.

B5: HB14: murine anti-EBV gp350 mAb, IgG1 κ; SEQ ID NO: 124 / 125 (antibody, V domains shown)
VH: SGAELVRPGASVNLSCKALGYTFTDYEMHWVKQTPVYGLEWIGTIHPRRGGTAYNQRFKGKAALTADKSSSTAYMELSSLTSEDSAVYYCARYGYPWYFDVWGAGTTVTVSS
VL: LSLPVSLGDQASISCRSSQSIVHDNGNTYLEWYLQKPGQSPKLLIYKVSNRFSGVLDKFSGSGSGTDFTLKISRVEAEDLGIYYCFQGSHVPPTFGGGTKLEIK
modifications: heavy chain mAb HB14; light chain mAb HB14
For the molecule B5, in assay [1], the “ELISA binding to purified EBV gp350/220” value is recorded as “+” and the “ELISA binding strength to gp350, compared with m72A1 / parental antibody” value was “equal to or greater than that of the positive control, m72A1”. Further, in assay [3], the “neutralization of EBV” value was “failed to neutralize EBV infection”.

B6: HB7: murine anti-EBV gp350 mAb, IgG1 κ; SEQ ID NO: 112 / 113 (antibody, V domains shown)
VH: AELVRPGASVKLSCKALGYTFTDYEMHWVKQTPVHGLEWIGTISPGRSGTAYNQKFKGKATLTADKSSRTAYMELNSLTSEDSAVYYCSRYGHPSYLDVWGAGTTVTVSSAKTTPPSVYPLAPGSAAQTNSMVTLG
VL: KFMSTSVGDRVNITCKASQSVGNAVAWFQQKPGQSPKLLIYSASNRYTGIPDRFTGSGSGTDFTLTCNNMQSEDLADYFCQQYSSYPLTFGAGTKLELKRADAAPTV
modifications: heavy chain mAb HB7; light chain mAb HB7
In the case of B6, in assay [1], the “ELISA binding to purified EBV gp350/220” value is recorded as “+” and the “ELISA binding strength to gp350, compared with m72A1 / parental antibody” value is recorded as “equal to or greater than that of the positive control, m72A1”. In addition, in assay [3], the “neutralization of EBV” value is listed as “failed to neutralize EBV infection”.
